Laboratory results as given in article PMC12014896 (2025).

B1: COVIC-127 (antibody)
chain 1: not shown
chain 2: QVQLQESGGGLVQAGGSLRLSCAASGRTFSEYAMGWFRQAPGKEREFVATISWSGGSTYYTDSVKGRFTISRDNAKNTVYLQMNSLKPDDTAVYYCAAAGLGTVVSEWDYDYDYWGQGTQVTVSSGGSGGSQVQLQESGGGLVQAGGSLRLSCAASGRTFSEYAMGWFRQAPGKEREFVATISWSGGSTYYTDSVKGRFTISRDNAKNTVYLQMNSLKPDDTAVYYCAAAGLGTVVSEWDYDYDYWGQGTQVTVSSGGGGSGGGGSKRTVAAPSVFIFPPSDEQLKSGTASVVCLLNNFYPREAKVQWKVDNALQSGNSQESVTEQDSKDSTYSLSSTLTLSKADYEKHKVYACEVTHQGLSSPVTKSFNRGEC
B2: COVIC-95 (antibody, V domains shown)
VH: EVQLVESGGGLVQPGGSLRLSCAASGQTFNMGWFRQAPGKEREFVAAIGSGGSTSYADSVKGRFTISADNSKNTAYLQMNSLKPEDTAVYYCWRLGNDYFDYWGQGTLVTVSS
B3: COVIC-66 (antibody)
chain: QVQLQESGGGLVQAGGSLRLSCAASGRTFSEYAMGWFRQAPGKEREFVATISWSGGSTYYTDSVKGRFTISRDNAKNTVYLQMNSLKPDDTAVYYCAAAGLGTVVSEWDYDYDYWGQGTQVTVSSGGSGGSQVQLQESGGGLVQAGGSLRLSCVASGSIFSINAMDWYRQAPGKQRELVAGITSGGSTNYGDFVKGRFTISRDNAKNTVYLQMDSLKPEDTAVYYCAAEVGGWGPPRPDYWGHGTQVTVSSGGGGSGGGGSEPKSCDKTHTCPPCPAPELLGGKKKPLDGEYFTLQIRGRERFEMFRELNEALELKDAQAGKEPG
B4: COVIC-125 (antibody)
chain 1: QVQLQESGGGLVQAGGSLRLSCAASGRTFSEYAMGWFRQAPGKEREFVATISWSGGSTYYTDSVKGRFTISRDNAKNTVYLQMNSLKPDDTAVYYCAAAGLGTVVSEWDYDYDYWGQGTQVTVSSGGSGGSQVQLQESGGGLVQAGGSLRLSCAASGRTFSEYAMGWFRQAPGKEREFVATISWSGGSTYYTDSVKGRFTISRDNAKNTVYLQMNSLKPDDTAVYYCAAAGLGTVVSEWDYDYDYWGQGTQVTVSSGGGGSGGGGSASTKGPSVFPLAPSSKSTSGGTAALGCLVKDYFPEPVTVSWNSGALTSGVHTFPAVLQSSGLYSLSSVVTVPSSSLGTQTYICNVNHKPSNTKVDKKVEPKSCDKTHTKKKPLDGEYFTLQIRGRERFEMFRELNEALELKDAQAGKEPGGGGGSGGGGSQVQLQESGGGLVQAGGSLRLSCAASGRTFSEYAMGWFRQAPGKEREFVATISWSGGSTYYTDSVKGRFTISRDNAKNTVYLQMNSLKPDDTAVYYCAAAGLGTVVSEWDYDYDYWGQGTQVTVSSGGSGGSQVQLQESGGGLVQAGGSLRLSCAASGRTFSEYAMGWFRQAPGKEREFVATISWSGGSTYYTDSVKGRFTISRDNAKNTVYLQMNSLKPDDTAVYYCAAAGLGTVVSEWDYDYDYWGQGTQVTVSS
chain 2: QVQLQESGGGLVQAGGSLRLSCAASGRTFSEYAMGWFRQAPGKEREFVATISWSGGSTYYTDSVKGRFTISRDNAKNTVYLQMNSLKPDDTAVYYCAAAGLGTVVSEWDYDYDYWGQGTQVTVSSGGGGSGGGGSKRTVAAPSVFIFPPSDEQLKSGTASVVCLLNNFYPREAKVQWKVDNALQSGNSQESVTEQDSKDSTYSLSSTLTLSKADYEKHKVYACEVTHQGLSSPVTKSFNRGEC

Target: SARS-CoV-2 spike RBD (Wuhan-Hu-1) (Severe acute respiratory syndrome …, UniProt P0DTC2)
Experiment: SPR

Row | Binder | Kd [nM]
1 | B1 | 106
2 | B2 | 27.5
3 | B3 | 140
4 | B4 | 184
